This is an account of results in patent US12448423 (Xencor, dated 2025).

The target of assay [1] is T1, cynomolgus CD8 (captured on the Octet biosensor) (cynomolgus).
T1 construct: Construct not described; also called cyno CD8; cyno CD8a
The assay is described as follows: method not stated in the sentence (Octet in the same example).

Assay [2] concerns the target T2, human CD8 (captured on the Octet biosensor) (human, UniProt P01732 22-182, limits assumed).
T2 construct: Construct not described; also called recombinant human CD8a
Description: Octet (BLI); human CD8 captured, dipped into multiple concentrations of the one-arm mAb.

In assay [3] the target is T1, cynomolgus CD8 (captured on the Octet …). Description: Octet (BLI); cynomolgus CD8 captured, dipped into multiple concentrations of the one-arm mAb.

T2 sequence (P01732 22-182 limits assumed): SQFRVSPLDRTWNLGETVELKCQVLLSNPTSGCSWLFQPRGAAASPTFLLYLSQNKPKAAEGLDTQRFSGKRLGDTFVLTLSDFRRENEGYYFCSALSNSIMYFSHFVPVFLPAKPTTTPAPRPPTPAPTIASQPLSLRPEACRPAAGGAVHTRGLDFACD

B1: humanized OKT8 variant (H2L1) (antibody)
heavy: QVQLVQSGAEVKKPGASVKVSCKASGFNIKDTYIHWVRQAPGKGLEWMGRIDPANDNTLYASKFQGRVTITADTSINTAYMELSRLRSDDTAVYYCGRGYGYYVFDHWGQGTTVTVSSASTKGPSVFPLAPSSKSTSGGTAALGCLVKDYFPEPVTVSWNSGALTSGVHTFPAVLQSSGLYSLSSVVTVPSSSLGTQTYICNVNHKPSNTKVDKKVEPKSCDKTHTCPPCPAPPVAGPSVFLFPPKPKDTLMISRTPEVTCVVVDVKHEDPEVKFNWYVDGVEVHNAKTKPREEQYNSTYRVVSVLTVLHQDWLNGKEYKCKVSNKALPAPIEKTISKAKGQPREPQVYTLPPSREQMTKNQVKLTCLVKGFYPSDIAVEWESNGQPENNYKTTPPVLDSDGSFFLYSKLTVDKSRWQQGNVFSCSVMHEALHNHYTQKSLSLSPGK
light: DIKMTQSPSSLSASVGDRVTITCRTSRSISQYLAWYQEKPGKTNKLLIYSGSTLQSGIPSRFSGSGSGTDFTLTISSLQPEDFATYYCQQHNENPLTFGAGTKLEIKRTVAAPSVFIFPPSDEQLKSGTASVVCLLNNFYPREAKVQWKVDNALQSGNSQESVTEQDSKDSTYSLSSTLTLSKADYEKHKVYACEVTHQGLSSPVTKSFNRGEC
Fc: EPKSSDKTHTCPPCPAPPVAGPSVFLFPPKPKDTLMISRTPEVTCVVVDVKHEDPEVKFNWYVDGVEVHNAKTKPREEEYNSTYRVVSVLTVLHQDWLNGKEYKCKVSNKALPAPIEKTISKAKGQPREPQVYTLPPSREEMTKNQVSLTCDVSGFYPSDIAVEWESDGQPENNYKTTPPVLDSDGSFFLYSKLTVDKSRWEQGDVFSCSVMHEALHNHYTQKSLSLSPGK
notes: also called OKT8_H2L1
Molecule B1 yielded a Kd in assay [1] of 200 nM. Also, in assay [2], the affinity, expressed as Kd, was 12 nM; the koff was 0.006 s⁻¹; the kon turned out to be 500000 M⁻¹ s⁻¹. In assay [3], this molecule came in with a Kd of 202 nM, an off-rate (koff) of 0.0699 s⁻¹ and an on-rate constant (kon) of 347000 M⁻¹ s⁻¹.
